Experimental data published in patent US20200002405A1 (ADMINISTRATORS OF THE TULANE EDUCATIONAL FUND, published 2020).
Where two headings read alike, the source gives them in different places.

T1: LASV Josiah (lineage IV) glycoprotein, full-length GP (Lassa virus, Josiah strain, UniProt P08669 2-491)
T1 sequence: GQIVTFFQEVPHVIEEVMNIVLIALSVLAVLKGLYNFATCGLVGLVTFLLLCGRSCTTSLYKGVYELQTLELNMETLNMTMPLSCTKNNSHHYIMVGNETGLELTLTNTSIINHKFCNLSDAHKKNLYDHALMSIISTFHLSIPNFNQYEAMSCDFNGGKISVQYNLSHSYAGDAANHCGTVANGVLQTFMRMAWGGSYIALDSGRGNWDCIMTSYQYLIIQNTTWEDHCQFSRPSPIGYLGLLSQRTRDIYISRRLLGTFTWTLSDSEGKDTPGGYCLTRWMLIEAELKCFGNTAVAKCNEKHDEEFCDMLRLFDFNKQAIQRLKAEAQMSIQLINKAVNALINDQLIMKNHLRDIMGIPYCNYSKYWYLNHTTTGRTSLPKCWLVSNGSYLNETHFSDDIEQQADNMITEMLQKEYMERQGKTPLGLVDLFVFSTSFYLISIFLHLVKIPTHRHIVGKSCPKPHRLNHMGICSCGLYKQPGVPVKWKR

T2: LCMV WE strain GP (LCMV, WE strain, UniProt P07399 2-498)
T2 construct: whole, on cells
T2 sequence: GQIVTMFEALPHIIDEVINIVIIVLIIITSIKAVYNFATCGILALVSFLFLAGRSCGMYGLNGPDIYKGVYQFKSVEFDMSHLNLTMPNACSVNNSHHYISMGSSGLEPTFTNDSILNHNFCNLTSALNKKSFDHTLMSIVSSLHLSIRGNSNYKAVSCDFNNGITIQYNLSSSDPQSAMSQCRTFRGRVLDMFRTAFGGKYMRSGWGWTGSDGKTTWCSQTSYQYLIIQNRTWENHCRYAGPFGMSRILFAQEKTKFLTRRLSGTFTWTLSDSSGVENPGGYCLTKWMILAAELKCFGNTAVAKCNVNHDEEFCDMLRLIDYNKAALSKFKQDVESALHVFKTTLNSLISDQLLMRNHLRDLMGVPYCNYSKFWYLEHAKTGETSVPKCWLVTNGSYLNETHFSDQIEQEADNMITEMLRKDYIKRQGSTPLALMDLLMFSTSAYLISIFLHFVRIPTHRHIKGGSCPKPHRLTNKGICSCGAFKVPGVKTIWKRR

B1: 36.9F (antibody, V domains shown)
VH: EVQLVQSGGGLVKAGGSLKLSCGASGFTFSSYSMSWVRQAPGKGLEWVSYISSGGSSIHYADSVKGRFTISRDNAKNSLYLQMKNLRVDDTGRYYCVRDPRSGISGRYGMDVWGQGTTVTVSS
VL: DIVMTQSPDSLAVSLGERATINCKSSQTVLFTSYYVAWYQQKPGQPPKLLFSGASSRESGVPDRFSAGGSGTDFYLTINSLQAEDVADYYCQQYHTPPFTFGGGTKLEIRR
B2: 37.2D (antibody, V domains shown)
VH: EVQLVQSGAEVKKPGASVKVSCKASGYTFTKYGISWVRQAPGQGLEWMGWISAFNGYTRYGQRFQGKVTMTTDTSTNTASLEVRTLTSNDTAVYYCARQYPDQYSSSGWPRLFAMDVWGQGTTVIVSP
VL: ETTLTQSPATLSVSPGETATLSCRASQNVINNLAWYQQKPGQAPRLLIYGASTRATGIPARFSGSGSGTEFTLTISSMQSEDFAVYYCQQYNDWPRSFGQGTRLDIRR
B3: 25.6A (antibody, V domains shown)
VH: QVQLQESGGGLVKAGGSLRLSCAASGFMFERYSLHWVRQTPGKGLEWVSSISSLSGSHINYADSVKGRFTISRDNAKNSLSLQMNSLRVEDTAIYYCARDRRSGSSPVPLDVWGQGTTVTVSS
VL: DLPVLTQPASVSGSPGQSITISCTGTSSDVGAYNYVSWYQQHPGKAPKLIIYEVKIRPSGVSNRFSGSKSGNTASLTISGLQAEDEADYFCSSYSTNSPWVFGGGTKVTVLR
B4: 19.7E (antibody, V domains shown)
VH: EVQLVESGGGLVRPGGSLRLSCAASGFSFSSYSMHWVRHVPGKGLVWVSYINSDGSTKIYADSVKGRFSISRDNAKNKLYLQMDSLRVEDTAVYSCVRLVHYDWSPFVWGQGTLVTVSS
VL: EIVLTQSPSTLSASVGDRVTITCRASQSINNWLAWYQEKPGKAPKLLINKASSLESGVPSRFSGSGSGTEFTLTITSLQPDDFATYYCQQYNSNSWTFGQGTKVDMKR
B5: 8.11G (antibody, V domains shown)
VH: QVQLQESGPGLVKPSETLSLTCSISGVSTRNYYWSWIRQSPGKGLEWIGYIFNIGTTNYNPSLKSRLTISVDTSKNQFSLKITSVTAADTAVYYCASGFEYGDYTFDYWGQGTPVTVSS
VL: EIVLTQSPATLSVSPGGRASLSCRASQSIGDKLSWYQQKPGQAPRLVIYGAYTRATDISPRFSGSRSGTDFNLTISRMQSGDFAVYFCQQYENWPRTFGQGTKLEIKR
B6: 10.4B (antibody)
VH: DQVQLVQSGGGVVQPGRSLRVSCVTSGFNFRAYGMHWVRQIPGKGLEWVADIWSAETNRHYADSVKGRFTISRDNSKSTLYLQMNSLRAEDTGVYFCAKARPGYDYVVDLWGQGTLVIVSSASTKGPSVFPLAPCSRSTSGGTAALGCLVKDYFPEPVTVSWNSGALTSGVHTFPAVLQSSGL
VL: DEIVLTQSPSSLSASVGDRVTITCRASRDINTYLGWFQQRPGKAPKSLIYGASNLQNGVPSRFSGSGSGTYFTLTINGLQTEDFATYYCQQYSIYPLSLGGGTKADMKRTVAAPSVFIFPPSDEQLKSGTASVVCLLNNFYPREAKVQWKVDNALQSGNSQESVTEQDSKDSTYSLSSTLTLSKADYEKHKVYACEVTHQGLSSP
B7: 25.10C (antibody, V domains shown)
VH: QVQLQESGGGLVKPGGSLRLSCTASGFNFNKYNMNWVRQAPGKGLEWVSSISALSTYIYYADSLKGRFTVSRDNAKNSLFLQMNSLRDDDTAVYYCAREIRRASTWSADLWGRGTLVTVSS
VL: DIQMTQSPSSLSASVGDRVIITCRASQSISSSLNWYQQKPGKAPKLLIYAAVNLETGVPSRFSGSGFGTDFTLAISNVQPEDFATYYCQQSDTRTFGRGTKLDVKR
B8: 18.5C (antibody)
VH: DEVQLVESGGGLVRPGGSLRLSCAAAGFTFKSYSMNWVRQAPGRGLEWVSSITSGGSKTYYADVVKGRFTVSRDNAKQSLYLQMNSLRAEDTAIYFCARSLHSTSQPSYMDVWGRKITVIVSSASTKGPSVFPLAPSSKSTSGGTAALGCLVKDYFPEPVTVSWNSGALTSGVHTFPAVLQSSGLYSLSSVVTVPSSSLGTQTYICNVNHKPSNTKVDKRVEPKSCDKTHTCPPCPAPELLGGPSVFLFPPKPKDTLMISRTPEVTC
VL: DDIQMTQSPGTLSLSPGERATLSCRASQSVISYYVAWYQHKGGQAPRLLIYGASSRATGVPDRFSGSGSGTDFTLTISSLEPEDFALYYCQYYGSSPLWAFGQGTKVEIKRTVAAPSVFIFPPSDEQLKSGTASVVCLLNNFYPREAKVQWKVDNALQSGNSQESVTEQDSKDSTYSLSSTLTLSKADYEKHKVYACEVTHQGLSSPVTKSFNRGEC
B9: NE13 (antibody, V domains shown)
VH: EVQLVESGGGLVKPGGSLRLSCVASGFTFSSYSMNWVRQAPGKGLEWVSSISSGSSYIEYADSVKGRLTISRDNAKKSLYLQLNSLRAEDTAVYYCARHTARIDSYHGMDVWGQGTTVTVSS
VL: ETTLTQSPGTLSLSPGERATLSCRASQSVSSTYLAWYQQKPGQSPRLLIYGASSRATGIPDRFSGSGSGTQFTLTINRLEPEDFAVYYCQQFGSPWTFGQGTKVEIKR
B10: 9.8A (antibody, V domains shown)
VH: EVQLVQSGGRLVQPGGSLRLSCVASGFTFSSHAMSWVRQAPGKGLEWVSGFSGSSGTTKYADSVKGRFTISRDNSKKTLYLQMNSLRAEDTAVYYCAKGFSPFRGVQFPYFDYWGQGTLVTVSS
VL: DIVMTQSPSTLSASVGDRVTITCRASQSIDRWLAWYQQKPGKAPKLLIYQASSLERGVPSRFSGSGSGTEFTLTISSLQPDDFATYYCQQYNGYPLTFGGGTKVEIKR

What was measured:
[1] = target: LASV 237 (lineage III) glycoprotein (Lassa virus, strain 237); test: cell-based or functional assay
[2] = target: LASV A19 (lineage II) glycoprotein (Lassa virus, strain A19); test: cell-based or functional assay
[3] = target: T1, LASV Josiah (lineage IV) glycoprotein, …; test: cell-based or functional assay
[4] = target: LASV Pinneo (lineage I) glycoprotein (Lassa virus, strain Pinneo); test: cell-based or functional assay
[5] = target: T1, LASV Josiah (lineage IV) glycoprotein, …; test: cell-based or functional assay; remark: listed apart in the source
[6] = target: T2, LCMV WE strain GP; test: cross-reactivity, immunofluorescence on GP-transfected 293T cells
[7] = target: T2, LCMV WE strain GP; test: immunofluorescence, 293T cells transfected with GP plasmid

Binder | IC50 (neutralization) [1] | IC80 (neutralization) [1] | IC50 (neutralization) [2] | IC80 (neutralization) [2] | IC50 (neutralization) [3] | IC80 (neutralization) [3] | IC50 (neutralization) [4] | IC80 (neutralization) [4] | IC50 (neutralization) [5] | IC80 (neutralization) [5] | binding result [6] | binding result [7]
B1 | 4.69 µg/mL | 19.4 µg/mL | 13 µg/mL | > 20 µg/mL | 18 µg/mL | > 20 µg/mL | 6.98 µg/mL | > 20 µg/mL | 0.57 µg/mL | 2.23 µg/mL |  | 
B2 | 0.256 µg/mL | 0.844 µg/mL | 0.469 µg/mL | 1.15 µg/mL | 0.559 µg/mL | 1.98 µg/mL | 0.537 µg/mL | 1.86 µg/mL | 0.137 µg/mL | 0.26 µg/mL | binds | 
B3 | 0.169 µg/mL | 0.603 µg/mL | 0.483 µg/mL | 3.51 µg/mL | 0.743 µg/mL | 2 µg/mL | 1.83 µg/mL | 3.11 µg/mL | 0.188 µg/mL | 0.3 µg/mL |  | 
B4 |  |  |  |  |  |  |  |  |  |  |  | no binding
B5 | 1.17 µg/mL | 3.64 µg/mL | 1.48 µg/mL | 4.59 µg/mL | 0.361 µg/mL | 1.74 µg/mL | 3.25 µg/mL | 10.5 µg/mL | > 10 µg/mL | > 10 µg/mL |  | no binding
B6 | > 20 µg/mL | > 20 µg/mL | > 20 µg/mL | > 20 µg/mL | > 20 µg/mL | > 20 µg/mL | > 20 µg/mL | > 20 µg/mL | > 10 µg/mL | > 10 µg/mL |  | no binding
B7 |  |  |  |  |  |  |  |  |  |  |  | no binding
B8 | 0.621 µg/mL | 3.23 µg/mL | 1.2 µg/mL | 4.63 µg/mL | 1.94 µg/mL | 3.98 µg/mL | 6.11 µg/mL | 12.2 µg/mL | > 10 µg/mL | > 10 µg/mL |  | 
B9 |  |  |  |  |  |  |  |  |  |  |  | no binding
B10 | 0.193 µg/mL | 0.494 µg/mL | 0.15 µg/mL | 0.527 µg/mL | 1.31 µg/mL | 2.42 µg/mL | 1 µg/mL | 2.59 µg/mL | 0.139 µg/mL | 0.253 µg/mL |  | 
